Patent US20230405119A1 (published 2023)

Biological target: IL13ra2-Fc
Test: yeast display flow cytometry titration

Binder | Kd
RLK (ligand) GPVPPSTALRRLIEELVNITQNQKAPLCNGSMVWSINLTAGMYCAALESLINVSGCSAIEKTQRMLSGFCPHKVSAGQFSSLHVRDTKILVAQFVKDLLLHLKKLFKEGRFN | 480 nM
YLK (ligand) GPVPPSTALRYLIEELVNITQNQKAPLCNGSMVWSINLTAGMYCAALESLINVSGCSAIEKTQRMLSGFCPHKVSAGQFSSLHVRDTKILVAQFVKDLLLHLKKLFKEGRFN | 200 nM
